This is an account of results in paper PMC10545826.

For assay [1], the target named is human FcγRIIIa (CD16a) V158 (human). Kind of assay: SPR; Biacore 8K; His-tagged FcγRIIIa captured (aimed 60 RU) by anti His-tag antibody on a CM5 chip; antibody samples as analytes (trastuzumab samples 360 to 22.5 nM); PBS with 0.005% Tween-20; 1:1 Langmuir global fit; temperature of the printed KD not stated (measured at 21-29 °C). A general note: SPR reads the build-up and loss of mass on a sensor chip optically.

For assay [2] the target is unchanged. In words: SPR; Biacore 8K; His-tagged FcγRIIIa captured (aimed 60 RU) by anti His-tag antibody immobilised on a CM5 chip; antibody samples as analytes (360 to 22.5 nM for the trastuzumab samples); PBS with 0.005% Tween-20; global fit, 1:1 Langmuir model; measured at 21-29 °C, the temperature of Table S1 not given.
Assay [3] shares this target. Kind of assay: SPR.
Target sequence in this assay (P08637 17-208 F176V): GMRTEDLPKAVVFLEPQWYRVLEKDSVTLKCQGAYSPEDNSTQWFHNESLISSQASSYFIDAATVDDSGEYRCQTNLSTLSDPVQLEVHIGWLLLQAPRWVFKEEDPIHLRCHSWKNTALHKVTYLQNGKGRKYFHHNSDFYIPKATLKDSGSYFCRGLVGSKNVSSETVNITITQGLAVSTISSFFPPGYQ
Assay [4] shares this target. In words: SPR; van't Hoff analysis of the temperature dependence of KD (21, 23, 25, 27, 29 °C), parameters at 25 °C; FcγRIIIa captured by anti His-tag antibody, antibody as analyte; PBS with 0.005% Tween-20.

A word on the koff: it is the rate constant with which the complex falls apart. A high value points to fast dissociation. For orientation: kon means a measure of how fast the partners come together. A lower kon goes with slow association. In general, Kd refers to the constant that tells how readily two partners part at equilibrium. Low readings indicate a tighter complex, high ones a looser complex.

In assay [1], afucosyl rituximab (antibody) yielded a fold increase of affinity relative to rituximab of 22 fold. In assay [2], the koff came to 0.0108 s⁻¹ and the kon amounted to 990000 M⁻¹ s⁻¹.

For the substance divalent DOTA-conjugated trastuzumab, in assay [3], the Kd is 0.0036 µM.

For the substance “Trastuzumab (anti-HER2 humanized IgG1) (antibody)”, in assay [1], the Kd was determined as 0.051 µM. In assay [2], this substance returned a dissociation rate constant (koff) of 0.0281 s⁻¹ and an on-rate (kon) of 550000 M⁻¹ s⁻¹. Also, the dH in assay [4] is -35.9 kcal/mol.

In assay [1], “Rituximab (Rituxan), an anti CD20 human antibody” displayed a Kd of 0.0614 µM. In assay [2], this substance gave a koff of 0.0331 s⁻¹ and an on-rate constant (kon) of 540000 M⁻¹ s⁻¹.

In assay [2], “divalent DOTA-conjugated trastuzumab (antibody)” returned a koff of 0.0089 s⁻¹ and an association rate constant (kon) of 2.46e+06 M⁻¹ s⁻¹.

“monovalent DOTA-conjugated trastuzumab (antibody)”: in assay [2], the Kd stood at 0.0122 µM, the off-rate constant (koff) came to 0.0116 s⁻¹ and the association rate constant (kon) is 950000 M⁻¹ s⁻¹.

Substance afucosyl rituximab returned an equilibrium dissociation constant (Kd) in assay [3] of 0.0109 µM. This lies in the double-digit nanomolar range.
